The target of assay [1] is N-terminal bromodomain of human BRD4 (residues 44–168) (human, UniProt O60885 44-168). Briefly: ITC.
Assay [2] deals with T1, human p300BRP (residues 1048–1282), wild type (human, UniProt Q09472 1048-1282, fluorescently labeled with a His tag Labeling Kit (microscale thermophoresis only)).
T1 chain: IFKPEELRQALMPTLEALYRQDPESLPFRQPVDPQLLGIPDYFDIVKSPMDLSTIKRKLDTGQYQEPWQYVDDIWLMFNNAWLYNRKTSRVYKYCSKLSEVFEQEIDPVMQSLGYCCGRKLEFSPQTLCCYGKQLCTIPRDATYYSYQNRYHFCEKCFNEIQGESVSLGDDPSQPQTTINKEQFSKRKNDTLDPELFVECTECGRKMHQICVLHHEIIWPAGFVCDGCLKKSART
Briefly: ITC.

Assay [3] addresses 180-bp unmodified nucleosome (human, UniProt P04908 1-130; P68431 1-136; P62805 1-103). Briefly: MST.

Where no end group is shown, it is not given here. A value given as a limit tells only on which side of the number the result lay.

B1: di-acetylated H2B peptide K20ac/K23ac (peptide)
chain: KAVTK(Ac)AQK(Ac)KDGK
In turn, B1 registered a Kd in assay [1] of over 500 µM.

B2: di-acetylated H2B peptide K12ac/K15ac (peptide)
chain: PAPKK(Ac)GSK(Ac)KAVTK
In turn, B2 showed a Kd in assay [2] of over 500 µM.

B3: human p300BRP (residues 1048–1282), 4A-substituted mutant (R1133A, K1134A, R1137A, K1140A) (domain or fragment)
chain: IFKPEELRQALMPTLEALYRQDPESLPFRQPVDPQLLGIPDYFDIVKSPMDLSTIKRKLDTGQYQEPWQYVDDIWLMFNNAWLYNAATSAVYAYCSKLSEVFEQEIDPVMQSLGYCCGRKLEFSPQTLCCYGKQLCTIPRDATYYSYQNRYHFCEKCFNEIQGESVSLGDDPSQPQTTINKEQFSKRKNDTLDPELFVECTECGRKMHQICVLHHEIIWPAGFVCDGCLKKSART
modifications: fluorescently labeled with a His tag Labeling Kit (microscale thermophoresis)
With B3, a half-maximal response in assay [3] (EC50) required 0.0073 µM.

(Values after article PMC10352329 (2023).)
